Laboratory results taken from publication PMC10056440 (2023).
No end group written: not given here.

Experiments:
[1] = target: mKate2-Kv1.3 M1-D52 truncated (Homo sapiens, UniProt P22001); experiment: competition with AgTx2-GFP, confocal, Neuro 2A cells
[2] = target: KcsA-Kv1.3 pore blocker binding site (Homo sapiens, UniProt P22001); experiment: competition with AgTx2-GFP, confocal, spheroplasts
[3] = target: KcsA-Kv1.1 pore blocker binding site (Homo sapiens, UniProt Q09470); experiment: competition with AgTx2-GFP, confocal, spheroplasts
Chain of KcsA-Kv1.1 pore blocker binding site (Q09470 348-381): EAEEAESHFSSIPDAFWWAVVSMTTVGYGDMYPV

[4] = target: KcsA-Kv1.6 pore blocker binding site (Homo sapiens, UniProt P17658); experiment: competition with AgTx2-GFP, confocal, spheroplasts
Chain of KcsA-Kv1.6 pore blocker binding site (P17658 398-431): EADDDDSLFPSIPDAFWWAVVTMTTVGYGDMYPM

Chain of KcsA-Kv1.3 pore blocker binding site (P22001 420-453): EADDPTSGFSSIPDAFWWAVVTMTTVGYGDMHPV
Chain of mKate2-Kv1.3 M1-D52 truncated (P22001 53-575): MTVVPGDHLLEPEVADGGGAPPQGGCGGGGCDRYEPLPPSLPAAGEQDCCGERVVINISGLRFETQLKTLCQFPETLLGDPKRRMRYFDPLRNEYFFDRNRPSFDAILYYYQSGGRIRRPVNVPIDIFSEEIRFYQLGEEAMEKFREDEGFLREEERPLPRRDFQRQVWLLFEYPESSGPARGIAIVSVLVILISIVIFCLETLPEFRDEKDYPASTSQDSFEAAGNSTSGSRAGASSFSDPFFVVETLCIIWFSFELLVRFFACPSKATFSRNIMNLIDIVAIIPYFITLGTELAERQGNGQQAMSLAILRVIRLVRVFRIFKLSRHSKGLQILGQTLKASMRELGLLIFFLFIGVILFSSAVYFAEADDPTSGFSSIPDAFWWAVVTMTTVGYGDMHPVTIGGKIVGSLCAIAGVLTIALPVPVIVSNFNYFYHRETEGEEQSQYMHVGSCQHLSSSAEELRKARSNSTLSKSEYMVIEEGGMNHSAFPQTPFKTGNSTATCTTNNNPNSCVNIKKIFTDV

GVPINVSCTGSPQCIKPCKDAGMRFGKCMNRKCHCTPK (ends and bridges not checked; cysteine pairing not given here) [AgTx2, listing 1 of 4 here]
Ki [1]: 0.7 nM

GVEINVKCSGSPQCLKPCKDAGMRFGKCMNRKCHCTPK (ends and bridges not checked; cysteine pairing not given here) [KTx1, listing 1 of 3 here]
Ki [2]: 0.032 nM

GVPINVSCTGSPQCIKPCKDAGMRFGKCMNRKCHCTPK (ends and bridges not checked; cysteine pairing not given here) [AgTx2, listing 2 of 4 here]
Ki [3]: 3.7 nM

GVEINVKCSGSPQCLKPCKDAGMRFGKCMNRKCHCTPK (ends and bridges not checked; cysteine pairing not given here) [KTx1, listing 2 of 3 here]
Ki [4]: 0.016 nM

GVEINVKCSGSPQCLKPCKDAGMRFGKCMNRKCHCTPK (ends and bridges not checked; cysteine pairing not given here) [KTx1, listing 3 of 3 here]
Ki [3]: 3.8 nM

GVPINVSCTGSPQCIKPCKDAGMRFGKCMNRKCHCTPK (ends and bridges not checked; cysteine pairing not given here) [AgTx2, listing 3 of 4 here]
Ki [4]: 0.027 nM

GVPINVSCTGSPQCIKPCKDAGMRFGKCMNRKCHCTPK (ends and bridges not checked; cysteine pairing not given here) [AgTx2, listing 4 of 4 here]
Ki [2]: 0.039 nM
